Measurements published in article PMC4363659.

Columns and labels:
Assay in all cases: fluorescence polarization
Conditions in all cases: FP: 50 mM Tris/HCl pH 8.0, 150 mM NaCl, 1 mM TCEP, 0.1 mg/ml BSA, 0.5 nM DNA, RT 10 min, EMSA: 10 mM HEPES pH 7.5, 100 mM KCl, 5 mM MgSO4, 5% glycerol
[1] = tested on: His6::AvrBs3 (Xanthomonas campestris pv. vesicatoria)
[2] = tested on: His6::AvrBs3ΔN152 (Xanthomonas campestris pv. vesicatoria)
[3] = tested on: His6::AvrBs3ΔN152-C16 (Xanthomonas campestris pv. vesicatoria)

E1U20 36-bp UPA20 promoter fragment (fluorescein)
Kd [1]: 0.0232 µM | Kd [2]: 0.0992 µM | Kd [3]: 0.282 µM
